These results are taken from patent US9890409B2, “Composition for astringin product” (INDUSTRY FOUNDATION OF CHONNAM NATIONAL UNIVERSITY, priority 2015, dated 2018).

A short description of this data set: Oxidation of polydatin to astringin (3′-hydroxylation), steady-state kinetics by HPLC. The class given is biochemical. The conditions noted are these: polydatin as substrate, NADPH-generating system, 37° C., 30 minutes, 100 mM potassium phosphate buffer pH 7.4. How it is done:
P450 BM3 50 pmol and […] of polydatin as a substrate were added to 0.25 ml of 100 mM potassium phosphate buffer (pH 7.4) to perform a typical steady-state reaction. In order to start the reaction, the NADPH-generating system (10 mM glucose 6-phosphate, 0.5 mM NADP^+ and 1 IU yeast glucose 6-phosphate-dihydrogenase per 1 ml of final concentration) was added. 20 mM polydatin solution was prepared with DMSO, and diluted with an enzyme reaction solution, thereby preparing a reaction mixture so that the final organic solvent has a concentration of 1%/(v/v) or less. The solution was reacted at 37° C. for 30 minutes, and the reaction was terminated with ethyl-acetate which is cooled by using ice with twice amount.
The reaction mixture was centrifuged, the supernatant was […]. Then, the solvent was evaporated under a nitrogen gas, and analyzed by HPLC. A sample (30 μl) was injected into Gemini C18 column (4.6 mm×150 mm, 5 μm, Phenomenex, Torrance, Calif.). […] The mobile phase flowed at a rate of 1 ml/minute and an eluent was measured by 320 nm of UV.
In order to examine whether polydatin is oxidized by CYP102A1(P450 BM3), oxidativity of polydatin was measured at a substrate concentration fixed to be 1000 μM in the P450 wild-type CYP102A1, the CYP102A1 mutant, the CYP102A1 chimera, and the mutant of CYP102A1 chimera. […]

B1: M16V3: chimera protein: heme domain of CYP102A1 Mutant#16 (R47L/F81I/F87V/E143G/L188Q/E267V) fused with reductase domain of natural variant CYP102A1.3 (protein)
chain: TIKEMPQPKTFGELKNLPLLNTDKPVQALMKIADELGEIFKFEAPGLVTRYLSSQRLIKEACDESRFDKNLSQALKFVRDFAGDGIVTSWTHEKNWKKAHNILLPSFSQQAMKGYHAMMVDIAVQLVQKWERLNADEHIEVPGDMTRLTLDTIGLCGFNYRFNSFYRDQPHPFITSMVRALDEAMNKQQRANPDDPAYDENKRQFQEDIKVMNDLVDKIIADRKASGEQSDDLLTHMLNGKDPETGEPLDDENIRYQIITFLIAGHVTTSGLLSFALYFLVKNPHVLQKAAEEAARVLVDPVPSYKQVKQLKYVGMVLNEALRLWPTAPAFSLYAKEDTVLGGEYPLEKGDELMVLIPQLHRDKTIWGDDVEEFRPERFENPSAIPQHAFKPFGNGQRACIGQQFALHEATLVLGMMLKHFDFEDHTNYELDIKETLTLKPEGFVVKAKSKKIPLGGIPSPSTEQSAKKVRKKVENAHNTPLLVLYGSNMGTAEGTARDLADIAMSKGFAPQVATLDSHAGNLPREGAVLIVTASYNGHPPDNAKQFVDWLDQASADDVKGVRYSVFGCGDKNWATTYQKVPAFIDETLAAKGAENIADRGEADASDDFEGTYEEWREHMWSDVAAYFNLDIENSEDNKSTLSLQFVDSAADMPLAKMHGAFSANVVASKELQQLGSERSTRHLEIALPKEASYQEGDHLGVIPRNYEGIVNRVTARFGLDASQQIRLEAEEEKLAHLPLGKTVSVEELLQYVELQDPVTRTQLRAMAAKTVCPPHKVELEALLEKQAYKEQVLAKRLTMLELLEKYPACEMEFSEFIALLPSISPRYYSISSSPHVDEKQASITVSVVSGEAWSGYGEYKGIASNYLANLQEGDTITCFVSTPQSGFTLPKDSETPLIMVGPGTGVAPFRGFVQARKQLKEQGQSLGEAHLYFGCRSPHEDYLYQEELENAQNEGIITLHTAFSRVPNQPKTYVQHVMERDGKKLIELLDQGAHFYICGDGSQMAPDVEATLMKSYADVYEVSEADARLWLQQLEEKGRYAKDVWAG
modifications: CYP102A1 chimeric protein M16V3 aa seq
As for B1, the “kcat, astringin formation” value was 0.00417 ± 0.0005 s⁻¹. Also, the Km – broadly, the substrate concentration at which the rate is half of its maximum – (read-out: Km, astringin formation) amounted to 390 ± 111 µM.
